Experiments:
Assay type in all cases: biochemical
[1] = biological target: T1, human full-length Sirt1 (fl-Sirt1) (Homo sapiens, UniProt Q96EB6); experiment: FdL deacetylation assay, fl-Sirt1; conditions: Figure 1D,E; compared with Sirt2 and Sirt3
T1 construct: human full-length Sirt1 (fl-Sirt1) in pET-15b; made in house; host or cells: E. coli CodonPlus(DE3)
T1 sequence (Q96EB6 1-747): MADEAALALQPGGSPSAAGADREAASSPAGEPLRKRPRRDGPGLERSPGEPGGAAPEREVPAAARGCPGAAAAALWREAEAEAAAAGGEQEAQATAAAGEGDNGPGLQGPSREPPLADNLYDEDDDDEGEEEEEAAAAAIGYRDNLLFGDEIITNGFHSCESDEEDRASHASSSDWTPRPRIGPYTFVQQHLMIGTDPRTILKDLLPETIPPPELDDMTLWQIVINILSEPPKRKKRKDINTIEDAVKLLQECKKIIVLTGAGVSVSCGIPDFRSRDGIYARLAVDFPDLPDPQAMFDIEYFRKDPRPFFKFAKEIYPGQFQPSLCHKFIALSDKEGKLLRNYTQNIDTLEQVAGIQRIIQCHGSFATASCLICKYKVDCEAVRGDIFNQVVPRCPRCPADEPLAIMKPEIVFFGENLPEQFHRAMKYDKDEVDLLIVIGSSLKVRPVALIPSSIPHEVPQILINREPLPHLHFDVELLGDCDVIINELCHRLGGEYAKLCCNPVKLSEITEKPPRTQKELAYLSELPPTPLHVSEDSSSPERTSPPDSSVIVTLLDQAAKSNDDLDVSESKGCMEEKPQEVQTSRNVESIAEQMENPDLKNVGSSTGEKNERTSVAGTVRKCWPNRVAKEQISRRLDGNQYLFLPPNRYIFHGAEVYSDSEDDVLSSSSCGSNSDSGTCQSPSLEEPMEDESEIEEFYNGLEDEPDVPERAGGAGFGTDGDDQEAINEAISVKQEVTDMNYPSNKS
Text: (§1) A human mini-Sirt1 construct (aa 183-505-(GGGS)2-641-665), as described in [27], was generated in a modified pET-19b with a TEV cleavage site. This construct and human full-length Sirt1 (fl-Sirt1) in pET-15b, Sirt1-(183-664) and Sirt1-(214-664) in pET-15b, mini-Sirt1-∆SBD (aa 214-505-(GGGS)2-641-665) and mini-Sirt1-∆ESA (aa 183–505) in a modified pET-19b with TEV cleavage site, Sirt2-(43-356) in a modified pET-19b with a His6-Sumo tag, Sirt3-(93-399) in a modified pET-32a with Trx-His6 tag and TEV cleavage site, hSirt3-(118-399) in pVFT3S (Sungkyunkwan University, Seoul, Republic of Korea) with His6-Trx tag and TEV cleavage site, Sirt5-(34-302) in pET-151/D-TOPO, and Sirt6-(1-355) in pQE80L.1 were purified as described. Shortly, proteins were expressed at 20 °C (mini-Sirt1 constructs at 16 °C) in E. coli CodonPlus(DE3), cell lysates were cleared by centrifugation, and proteins were purified via affinity chromatography using a nickel NTA column. After digestion with thrombin or TEV protease, proteins were re-run over the nickel NTA column, pooled, and concentrated. The samples were, then, subjected either directly to size exclusion chromatography in 50 mM Tris/HCl, pH 8.0, 150 mM NaCl, 1 mM TCEP, or to an ion exchange chromatography followed by size exclusion chromatography. […]

[2] = biological target: T2, human mini-Sirt1 (aa 183-505-(GGGS)2-641-665) (Homo sapiens, UniProt Q96EB6); experiment: FdL assay, mini-Sirt1; conditions: Michaelis–Menten
T2 construct: aa 183-505-(GGGS)2-641-665; made in house; host or cells: E. coli CodonPlus(DE3)
T2 sequence (Q96EB6 with tags, fused parts or gaps limits assumed): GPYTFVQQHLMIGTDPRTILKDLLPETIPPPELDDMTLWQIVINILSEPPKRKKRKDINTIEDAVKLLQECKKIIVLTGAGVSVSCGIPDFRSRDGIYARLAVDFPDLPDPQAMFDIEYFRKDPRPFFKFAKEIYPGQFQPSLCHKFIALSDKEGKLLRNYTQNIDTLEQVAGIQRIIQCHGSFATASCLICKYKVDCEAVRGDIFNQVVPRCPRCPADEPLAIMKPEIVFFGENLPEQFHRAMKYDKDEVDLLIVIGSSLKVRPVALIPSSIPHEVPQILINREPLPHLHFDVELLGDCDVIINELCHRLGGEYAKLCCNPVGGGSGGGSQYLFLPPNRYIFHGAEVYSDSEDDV
Text: as §1

Sirt3-(93-399) = biological target: T3, Sirt3-(93-399) (Homo sapiens, UniProt Q9NTG7); experiment: FdL assay, Sirt3; conditions: increasing Tat-Cys^−, n = 3-6
T3 construct: Sirt3-(93-399) in a modified pET-32a; Trx-His6 (cleaved yes); made in house; host or cells: E. coli CodonPlus(DE3)
T3 sequence (Q9NTG7 93-399): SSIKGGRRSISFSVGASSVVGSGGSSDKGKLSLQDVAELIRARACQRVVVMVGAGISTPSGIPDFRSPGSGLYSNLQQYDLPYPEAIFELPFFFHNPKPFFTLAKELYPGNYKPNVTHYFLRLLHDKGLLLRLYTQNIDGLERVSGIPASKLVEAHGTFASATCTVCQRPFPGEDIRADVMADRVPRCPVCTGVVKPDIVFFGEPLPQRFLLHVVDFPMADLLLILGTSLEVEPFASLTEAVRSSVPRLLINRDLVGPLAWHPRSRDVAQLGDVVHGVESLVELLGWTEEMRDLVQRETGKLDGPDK
Text: as §1

B1: Tat-Cys^−: Recombinant 86-residue HIV1 Zaire 2 Tat with C22S, C25A, C27A, C30S, C31A, C34S, and C37A (protein)
chain: MDPVDPNIEPWNHPGSQPKTASNRAHAKKSAYHSQVAFITKGLGISYGRKKRRQRRRPSQGGQTHQDPIPKQPSSQPRGDPTGPKE
[1]
  relative isoform inhibition, Sirt1 vs other isoforms: slightly more potent inhibition of this isoform
[2]; FdL-1, mini-Sirt1, increasing Tat-Cys^−, n = 3
  inhibition mode vs acetylated substrate peptide, Sirt1: competitive with the acetylated substrate peptide
[2]; NAD^+, mini-Sirt1, increasing Tat-Cys^−, n = 3–6
  inhibition mode vs NAD^+, Sirt1: non-competitive with NAD^+
Sirt3-(93-399); FdL-1, Sirt3-(93-399)
  inhibition mode vs acetylated substrate peptide, Sirt3: competitive with the acetylated substrate peptide
Sirt3-(93-399); NAD^+ titration, Sirt3-(93-399)
  inhibition mode vs NAD^+, Sirt3: non-competitive with NAD^+

Reference: PMC10144703, “Molecular Mechanism of Sirtuin 1 Inhibition by Human Immunodeficiency Virus 1 Tat Protein” (Life, 2023)
